According to patent US20100035825A1 (University of California, published 2010):
Substitutions are numbered along the chain they refer to.

T1: procaspase 1 (endogenous, mouse hepatic stellate cells) (mouse, UniProt P29452 1-402)
T1 construct: also called procaspases 1
T1 sequence (looked up): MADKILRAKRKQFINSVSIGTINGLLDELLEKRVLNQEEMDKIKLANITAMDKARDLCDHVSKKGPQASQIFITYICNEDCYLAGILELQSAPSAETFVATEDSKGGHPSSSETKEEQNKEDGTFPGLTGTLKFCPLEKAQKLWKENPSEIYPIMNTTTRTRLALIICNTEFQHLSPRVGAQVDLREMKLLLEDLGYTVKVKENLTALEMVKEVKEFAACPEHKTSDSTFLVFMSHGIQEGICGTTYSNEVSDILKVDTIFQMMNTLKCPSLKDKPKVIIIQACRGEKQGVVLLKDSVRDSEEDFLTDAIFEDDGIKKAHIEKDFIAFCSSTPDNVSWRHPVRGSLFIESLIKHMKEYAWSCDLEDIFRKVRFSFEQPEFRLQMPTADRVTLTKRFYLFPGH

T2: procaspase 8 (endogenous, mouse hepatic stellate cells) (mouse, UniProt O89110 1-480)
T2 construct: also called procaspases 8
T2 sequence (looked up): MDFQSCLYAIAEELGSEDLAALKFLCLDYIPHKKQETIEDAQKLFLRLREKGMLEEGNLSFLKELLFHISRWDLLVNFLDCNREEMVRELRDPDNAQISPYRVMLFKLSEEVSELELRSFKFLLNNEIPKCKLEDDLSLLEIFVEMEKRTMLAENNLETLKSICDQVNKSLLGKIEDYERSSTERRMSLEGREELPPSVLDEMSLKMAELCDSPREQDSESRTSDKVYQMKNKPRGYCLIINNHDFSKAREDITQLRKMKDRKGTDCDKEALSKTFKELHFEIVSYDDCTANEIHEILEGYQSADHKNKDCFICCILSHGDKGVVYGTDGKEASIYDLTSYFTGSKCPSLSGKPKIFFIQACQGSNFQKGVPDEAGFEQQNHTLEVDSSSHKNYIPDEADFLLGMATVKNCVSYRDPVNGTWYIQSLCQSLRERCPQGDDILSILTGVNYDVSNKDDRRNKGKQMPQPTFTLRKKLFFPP

T3: procaspase 7 (endogenous, mouse hepatic stellate cells) (mouse, UniProt P97864 1-303)
T3 construct: also called effector procaspase 7
T3 sequence (looked up): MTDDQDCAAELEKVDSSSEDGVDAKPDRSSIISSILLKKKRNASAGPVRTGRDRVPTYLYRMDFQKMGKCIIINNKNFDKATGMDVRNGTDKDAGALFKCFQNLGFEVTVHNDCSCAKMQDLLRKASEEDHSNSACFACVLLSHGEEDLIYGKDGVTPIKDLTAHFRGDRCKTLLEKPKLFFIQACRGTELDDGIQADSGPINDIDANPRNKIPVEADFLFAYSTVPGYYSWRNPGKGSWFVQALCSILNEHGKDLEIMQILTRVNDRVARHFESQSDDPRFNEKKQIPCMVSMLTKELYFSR

T4: procaspase 9 (endogenous, mouse hepatic stellate cells) (mouse, UniProt Q8C3Q9 1-454)
T4 construct: also called effector procaspase 9
T4 sequence (looked up): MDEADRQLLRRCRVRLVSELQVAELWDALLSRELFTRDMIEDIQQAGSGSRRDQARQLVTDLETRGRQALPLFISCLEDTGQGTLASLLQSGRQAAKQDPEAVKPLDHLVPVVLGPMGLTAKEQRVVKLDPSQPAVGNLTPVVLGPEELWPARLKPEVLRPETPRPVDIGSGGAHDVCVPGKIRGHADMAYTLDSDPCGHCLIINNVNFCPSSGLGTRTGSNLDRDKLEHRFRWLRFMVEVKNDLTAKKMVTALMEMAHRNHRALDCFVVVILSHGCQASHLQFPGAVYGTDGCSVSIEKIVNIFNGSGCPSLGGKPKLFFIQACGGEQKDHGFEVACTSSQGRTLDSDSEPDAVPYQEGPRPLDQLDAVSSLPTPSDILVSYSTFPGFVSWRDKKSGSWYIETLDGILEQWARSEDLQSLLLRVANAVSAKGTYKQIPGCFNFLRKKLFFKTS

T5: C/EBPβ-HA-Ala^217 (mouse, UniProt P28033 1-296, limits assumed)
T5 construct: not shown: HA (hemagglutinin) tag
T5 sequence: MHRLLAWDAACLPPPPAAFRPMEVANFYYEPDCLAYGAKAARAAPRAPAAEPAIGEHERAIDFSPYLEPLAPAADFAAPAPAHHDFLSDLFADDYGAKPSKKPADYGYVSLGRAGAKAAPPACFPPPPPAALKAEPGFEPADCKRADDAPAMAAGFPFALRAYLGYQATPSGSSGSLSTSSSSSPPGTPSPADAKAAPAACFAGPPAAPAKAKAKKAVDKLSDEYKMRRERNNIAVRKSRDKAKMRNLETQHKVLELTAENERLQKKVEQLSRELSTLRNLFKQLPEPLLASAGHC

B1: C/EBPβ-HA-Glu^217 (other, not shown: small tags and cut ends)
chain: T5 sequence with A217E
B2: C/EBPβ-PThr^217 (mouse C/EBPβ phosphorylated on Thr217) (other)
chain: T5 sequence with A217T
modifications: phosphothreonine at 217
notes: Endogenous, phosphorylated in stellate cells after CCl4 or on collagen type I
B3: purified recombinant procaspase 8 (human, Alexis Biochemicals) (enzyme, UniProt Q14790 217-479, looked up)
chain: SESQTLDKVYQMKSKPRGYCLIINNHNFAKAREKVPKLHSIRDRNGTHLDAGALTTTFEELHFEIKPHDDCTVEQIYEILKIYQLMDHSNMDCFICCILSHGDKGIIYGTDGQEAPIYELTSQFTGLKCPSLAGKPKVFFIQACQGDNYQKGIPVETDSEEQPYLEMDLSSPQTRYIPDEADFLLGMATVNNCVSYRNPAEGTWYIQSLCQSLRERCPRGDDILTILTEVNYEVSNKDDKKNMGKQMPQPTFTLRKKLVFPSD
notes: also called recombinant caspase 8; procaspases 8; not shown: 21 amino acid linker at the N-terminus from the expression vector
B4: procaspase 3 (endogenous, mouse hepatic stellate cells) (enzyme, UniProt P70677 1-277, looked up)
chain: MENNKTSVDSKSINNFEVKTIHGSKSVDSGIYLDSSYKMDYPEMGICIIINNKNFHKSTGMSSRSGTDVDAANLRETFMGLKYQVRNKNDLTREDILELMDSVSKEDHSKRSSFVCVILSHGDEGVIYGTNGPVELKKLTSFFRGDYCRSLTGKPKLFIIQACRGTELDCGIETDSGTDEEMACQKIPVEADFLYAYSTAPGYYSWRNSKDGSWFIQSLCSMLKLYAHKLEFMHILTRVNRKVATEFESFSLDSTFHAKKQIPCIVSMLTKELYFYH
notes: also called effector procaspase 3

Experiments:
[1] = biological target: T1, procaspase 1 (endogenous, mouse hepatic …); assay: anti-HA co-immunoprecipitation and immunoblot, transfected activated stellate cells
Source text: (§1) The expressed peptides were immunoprecipitated with anti-HA antibodies.

[2] = biological target: T2, procaspase 8 (endogenous, mouse hepatic …); assay: as above
Source text: as §1

[3] = biological target: B3; assay: co-immunoprecipitation of purified recombinant proteins (C/EBPβ peptides 200 µM), immunoblot, densitometry; reference C/EBPβ-HA-Ala217
[4] = biological target: T3, procaspase 7 (endogenous, mouse hepatic …); assay: C/EBPβ immunoprecipitation and immunoblot, stellate cells of CCl4-treated C/EBPβ+/+ mice
[5] = biological target: T4, procaspase 9 (endogenous, mouse hepatic …); assay: as above
[6] = biological target: T5, C/EBPβ-HA-Ala^217; assay: co-immunoprecipitation of purified recombinant proteins
[7] = biological target: B2; assay: C/EBPβ immunoprecipitation and immunoblot, stellate cells of CCl4-treated C/EBPβ+/+ mice

Binder: B1
- binding result [1]: binds
- binding result [2]: binds
- fold more co-immunoprecipitated than the Ala^217 peptides (densitometry) [3]: 12 fold

Binder: B2
- binding result [4]: no binding
- binding result [5]: no binding

Binder: B3
- binding result [6]: no binding

Binder: B4
- binding result [7]: no binding
